Experimental data: the supplement of paper PMC9170038

Each sequence was assayed on K4 kissing-loop RNA reporter (assay: apparent KD of K4 kissing-loop reporter; higher = weaker reporter binding). Conditions: Eterna round: R107; input ligand: none.
Protocol: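 RNA-MaP round R107: designed RNA switches with theophylline, tryptophan, arginine or FMN aptamers are transcribed on-chip within common flanks. They are titrated with a labelled K4 kissing-loop RNA reporter in RNA-MaP buffer (100 mM Tris pH 7.5, 80 mM KCl, 4 mM MgCl2), without ligand or with the indicated ligand. Median apparent KD per design.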
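Note: bound reporter read as fluorescence of individual clusters on recovered sequencing chips by microscopy, with normalized cluster intensities fitted with a binding model.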

| Sequence | apparent KD of K4 kissing-loop reporter [nM] |
| --- | --- |
| UCCAGCAGUACUGAUACCAGACUGCAUGUAGUGAUGUUGCAUAAGGGCAUAGAUGUCUCAGUCCCUUGGCAGCAGUACUGUUGCA [Theo B SS t1] | 284 |
| UGACUGGACUGAAGGAGCGUUCAGGUAGGUCGCUAUGGAGUGAUGUUCCAUAGAAGGAGCGAACAGGUAGGUCGCAGUCUAGUCU [ArgBS 30 #DoubleAptamer #SwitchBubble] | 111 |
| AAUCUCCUAGUGAUGUUAGGUUUAAGGGAAGGAGCGAGGUAAUACUCAGGUAGGUCGCCCACAUGCAUUAAUAAAUCAAUUUAAU | 91 |
| UGUCAUUGGUCUGAUACCAGCUGAUCGGAAACGAUCAUGCUGGAGUGAUGUUCCAGGAAAAGCCCUUGGCAGCAGACCGAUGACU [TheoBS 11 #SwitchBubble #StaticStem] | 121 |
| AAUGUGCAGGGAAGGAGCGUAGUCCAGUGCUGUUGGAGUUAGAUACCAGUGAUGUUGGUUAUACAGGUAGGUCGCCCUAGAGCGC [whbob_Ex_Arginine_B_2th162] | 124 |
| GGAUAGGAUAGAGGAUAUGGAUUAGGCAAGAAUAACUUGUCAUGUAAAUCCAUGAGGAGUGAUGUUCCAGAAGGCUGUCCUAUCG [MatMod 7 - Jieux - Exclusion - FMN B] | 114 |
| AUCUCGGUAUCAGAUACCAGACUAUCGAUACCGAGUGUAUCGGGUAGUGAUGUUACCAUAGUCCCUUGGCAGCUGGUAGUUCAUA [Theo B SS t9c] | 261 |
| CCGAAGAACCAGUGAUGUUGGUUGACUAGACAGGAUAUGAGCAACAUCAGAAGGGUCUGGCUUCGGGAGUGGGUCGCGCUGACCU [Geeredin] | 845 |
| AGAACUGUCUGAGAUACCAGCCGAGGAGUGAUGUUCCGGCUCGACGAAACGUCGAGCCACGGCCCUUGGCAGCUCAGACAGUUCA [Omei KL Theo B SS A v1] | 647 |
| UCGCGUCUGCGAGGAUAUCGGAUUAGAGUGAUGUUCUAUAAACGCCCAGUGAUGUUGGAUGCGAUACGAGAAGGCGCUGGGCGCA [Same State FMN B GF8] | 203 |
| AUCGGGAAUACGGCCGCCACUAUAGAGGCGACUACAUACCACCACAGUGAUGUUGUGCUGACCAGUAGGACCGGGUAAAAUCGAU [theeternabot_exclusion_KL_Trp_B_49] | 871 |
| GACAUACCUAUGGAGGGCCGAUCGAACAAACGAGGACCGGUACGGCCGCCACUCGUGGGCAGUGAUGUUGACCCUGGGAGGUAAG | 544 |
| AUAAAUAAUAAUGACUGAGAGUUUGGUGAGCGAGGACCGGUACGGCCGCCACUCGUACAUGAGUGAUGUUCUUGUAUGAGUCAGA [KL-XTryp-A6 #analogue] | 95.6 |
| UGUCAUUGGUCGGCCGCCACUUCAAAGAGAGUGAUGUUCUUAAAGACGGAUCGAAAGAUCUGUCGAAGGACCGGGACCGAUGACU [TrypBS 17 #SwitchBubble #StaticStem] | 1110 |
| CGCAGUGAUGUUGCGAGUUAAUUCAGGGAAGGAGCGCCACAGAUGGCAGGUAGGUCGCCCACGCAGUGAUGUUGCGUAUUCGGGU [Exclusion Arginine A GF 4] | 95.7 |
| AUAGGCAUAGCCCGAGUGAUGUUCGACGAUACCAGCCUCGAUAGAGGCCCUUGGCAGCGUAAAUGAUCAUGAAGCCAAGGAAUAA [whbob_Ex_Theo_A_th69] | 442 |

Same assay, conditions: Eterna round: R107; input ligand: theophylline 20 uM

| Sequence | apparent KD of K4 kissing-loop reporter [nM] |
| --- | --- |
| CCGCCAUCAUCAGAUACCAGGCUGAUGGCGGUAACCGCCAAGCGAGUGAUGUUCGCAUCAGUCCCUUGGCAGCUGAUGAAGACUG [#15 K4 Theophylline B Same State] | 155 |
| GAGGUUUACGUAGGAUAUCGGUAAUGAGUAGAUGGAGUGAUGUUCCGAAAUUGAAUAGGAGAUGGGCGAGAAGGGCGGAUUAAGC [whbob_SS_FMNB__2th204] | 110 |
| GCCGUAGAUUGAAGGAGCGGUAUGGGCGGUGGCUGAGUGAUGUUCAGGAAAAGUGGCUUCUACCAGGUAGGUCGCAAUCUACGGC | 146 |
| ACACUUUACGUAGGAUAUGCGACGAGUGAUGUUCGUCAGGCGGCUUUAGAUUAAACAAGCCGCCUAGCAGAAGGACGGGCAGUGU [Zaorleon] | 178 |
| UCUGCUGUAUAUGAUACCAGCAGUGAGAGACAGGAAGUAUAGUGAUGUUAUAUGAGAGAAUGCCCUUGGCAGCGUGUGCGGGUGG [SSTheophylB.Y] | 119 |
| AAGUGUGUGGCGGCCGCCACUAGUAUCCAGUGAUGUUGGAGAUAUCACGUAAGUGAUAUCCUACAUAGGACCGGGCCAUAUAGAA [Same State - Tryptophan B (Freestyle 20)] | 540 |
| AACGUUUUGUGAAGGAGCGCGAUAAGCAGUGAUGUUGCUUACUAUCAAUUUAUAUUUUACACGCAGGUAGGUCGCACAAUACGUA [JR_SSArginiB_Sub018] | 148 |
| AAAGUUGAUGAGUUGGGUAUGUGUUCCGAAGGAGCGAGAUUUAUCUCAGGUAGGUCGCGGAACUUGAGUGAUGUUCAUGUAUAAA [KL-XArg-A9 #analogue] | 637 |
| AAACAUUGGUCUGAUACCAGCUUGAUCGGAAAACGAUCUGCUGGAGUGAUGUUCCAAUAAAGCCCUUGGCAGCAGACCGAUGAAA [MAT - Same State Theophlline B - Mod of Eli - D13] | 684 |
| UGGCAGGUAUCGGCCGCCACUUUCUAGUACAUACGCAUAUCUUUACCAUCAGUGAUGUUGAUCAUAAGGACCGGGAUACAUCAGG [theeternabot_exclusion_KL_Trp_B_22] | 220 |
| UGUCAUUGGUCUGAUACCAGUUAGACCGAUAAGGUCAAAACUGGAGUGAUGUUCCCAAAUAACCCUUGGCAGCAGACCGAUGACU [TheoBS 5 #SwitchBubble #StaticStem] | 249 |
| AGGUUUUGAUUAGGAUAUGCAUUGACGAUGAGAAUAUAGUGAUGUUAUAUACUACGAAUUAGUAAAGUAGAAGGGAUUGAGGUUU [SSFMNB.aA] | 368 |
| AAGAAGGUCAAAGACCUUCGUGCACGUGAUACCAGUCGCGAAAGCGACCCUUGGCAGCACGGCAGUGAUGUUGCCAAGUGCACAA [#12 K4 Theophylline A Same State] | 664 |
| UAAUCCUAGUGAUACUUAUCAAGUGGUGGGCGAGGACCGGUACGGCCGCCACUCGAAUAUGCAGUGAUGUUGUAAUCCGGAUAAU [Exclusion - Tryptophan A (Freestyle 8)] | 1500 |
| GAUAAUAGCACGGCCGCCACUGAAAAGCCGUGCUAUACGAGUGAUGUUCGUAAUUAUACGGGAUUCAGGACCGGGUGCAACGGUA [Tryp B SS t1] | 158 |
| AAUGCAUAGUGAAGGAGCGCGAUAAGCAGUGAUGUUGCUUAGCUAUUAUUCAUUAUUUUAACGCAGGUAGGUCGCACUUUGCAUA [JR_ExcArginiB_Sub015] | 151 |
| UCCAGCAGUACUGAUACCAGACUGCAUGUAGUGAUGUUGCAUAAGGGCAUAGAUGUCUCAGUCCCUUGGCAGCAGUACUGUUGCA [Theo B SS t1] | 191 |
| UGACUGGACUGAAGGAGCGUUCAGGUAGGUCGCUAUGGAGUGAUGUUCCAUAGAAGGAGCGAACAGGUAGGUCGCAGUCUAGUCU [ArgBS 30 #DoubleAptamer #SwitchBubble] | 167 |
| AAUCUCCUAGUGAUGUUAGGUUUAAGGGAAGGAGCGAGGUAAUACUCAGGUAGGUCGCCCACAUGCAUUAAUAAAUCAAUUUAAU | 98.8 |
| UGUCAUUGGUCUGAUACCAGCUGAUCGGAAACGAUCAUGCUGGAGUGAUGUUCCAGGAAAAGCCCUUGGCAGCAGACCGAUGACU [TheoBS 11 #SwitchBubble #StaticStem] | 405 |
| AAUGUGCAGGGAAGGAGCGUAGUCCAGUGCUGUUGGAGUUAGAUACCAGUGAUGUUGGUUAUACAGGUAGGUCGCCCUAGAGCGC [whbob_Ex_Arginine_B_2th162] | 141 |
| GGAUAGGAUAGAGGAUAUGGAUUAGGCAAGAAUAACUUGUCAUGUAAAUCCAUGAGGAGUGAUGUUCCAGAAGGCUGUCCUAUCG [MatMod 7 - Jieux - Exclusion - FMN B] | 112 |
| AUCUCGGUAUCAGAUACCAGACUAUCGAUACCGAGUGUAUCGGGUAGUGAUGUUACCAUAGUCCCUUGGCAGCUGGUAGUUCAUA [Theo B SS t9c] | 280 |
| CCGAAGAACCAGUGAUGUUGGUUGACUAGACAGGAUAUGAGCAACAUCAGAAGGGUCUGGCUUCGGGAGUGGGUCGCGCUGACCU [Geeredin] | 371 |
